Measured values: patent US20250043302A1, “MUTATED HYDROXYPHENYLPYRUVATE DIOXYGENASE POLYPEPTIDE, AND CODING GENE AND USE THEREOF” (BEIJING DABEINONG BIOTECHNOLOGY CO., LTD., priority 2021, published 2025)

Columns and labels:
Type in all cases: in vivo
[1] = test system: Arabidopsis thaliana T1 plants; assay: Isoxaflutole tolerance of transgenic Arabidopsis thaliana T1 plants (spray, bleached leaf area grade, damage score); set-up: Scores (pesticide damage): scale not given here; conditions: spray, Arabidopsis thaliana T1 plants; for Classification and statistics of the grade of pesticide damage: Grade 0 (number of plants) / Classification and statistics of the grade of pesticide damage: Grade 1 (number of plants) / Classification and statistics of the grade of pesticide damage: Grade 2 (number of plants) / Classification and statistics of the grade of pesticide damage: Grade 3 (number of plants): 16 plants
Summary of the method: (§1)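 Read-out: per-plant damage grade 0–3 from proportion of bleached leaf area at 7 DAT (1 <50%, 2 >50%, 3 100%). Plants were T1 transformants, glufosinate-selected, plus wild-type CK, sprayed 18 days post-sowing. Rates: topramezone 25–200, isoxaflutole 35–280, mesotrione 52.5–420 g ai/ha.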

[2] = test system: Arabidopsis thaliana T1 plants; assay: Mesotrione tolerance of transgenic Arabidopsis thaliana T1 plants (spray, bleached leaf area grade, damage score); set-up: Scores: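 damage score 0-100 computed as Σ(N×S)/(T×M)×100 over grades 0-3 with higher meaning more damage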; conditions: Arabidopsis thaliana T1 plants; for Grade 0 (classification and statistics of the grade of pesticide damage; number of plants) / Grade 1 (classification and statistics of the grade of pesticide damage; number of plants) / Grade 2 (classification and statistics of the grade of pesticide damage; number of plants) / Grade 3 (classification and statistics of the grade of pesticide damage; number of plants): 16 plants
Summary of the method: as §1

[3] = test system: Arabidopsis thaliana T1 plants; assay: Topramezone tolerance of transgenic Arabidopsis thaliana T1 plants (spray, bleached leaf area grade, damage score); conditions: 7 DAT, Table 4; for Classification and statistics of the grade of pesticide damage: Grade 0 / Classification and statistics of the grade of pesticide damage: Grade 1 / Classification and statistics of the grade of pesticide damage: Grade 2 / Classification and statistics of the grade of pesticide damage: Grade 3: number of plants; for Scores: pesticide damage score 0-100
Summary of the method: as §1

[4] = isoxaflutole 35 g ai/ha (0.5x field concentration)
[5] = isoxaflutole 70 g ai/ha (1x field concentration)

B1: GmHPPD-02: nucleotide sequence encoding wild-type Glycine max HPPD; vector DBN11746 (nucleic acid)
DNA: ATGCCAATGTACACACCATCGCTCTCCGCCCCTTCTTCCAACCATATTCAGCCATCCGTGACTCTGCCTCTCTACATCACAACCACCAAGTTGAACCTGAAGCAGCAGCACCATACGACTCCTATGCCTATACCCATGTGCAATGAGATCCAAGCACAGGCTCAGGCACAAGCTCAACCCGGATTCAAACTCGTGGGATTCAAGAACTTCGTCCGTACCAATCCAAAATCTGACCGCTTCCAGGTGAACAGATTCCACCACATAGAGTTTTGGTGTACTGATGCAACGAATGCTTCGAGGAGGTTTTCATGGGGCTTAGGCATGCCGATTGTAGCAAAGTCAGACCTTTCTACAGGGAACCAAATTCATGCAAGCTATCTGCTCCGCTCAGGTGATTTGTCTTTCTTGTTCTCAGCTCCATATTCTCCATCATTATCTGCTGGGTCATCAGCAGCATCTAGTGCGTCGATCCCTAGCTTTGATGCCGCCACCTGCCTCGCCTTCGCCGCCAAACATGGATTTGGTGTTCGCGCCATTGCTCTTGAGGTTGCCGATGCCGAGGCTGCTTTTAGCGCCTCCGTCGCCAAGGGAGCTGAGCCTGCGTCACCTCCTGTTCTTGTTGATGATCGAACTGGTTTTGCTGAAGTGCGTCTTTACGGCGACGTGGTGCTCAGATATGTTAGTTACAAGGATGCTGCTCCTCAAGCGCCGCACGCTGATCCTTCAAGATGGTTTCTTCCGGGGTTTGAGGCCGCTGCTAGTTCATCTTCCTTCCCGGAGTTGGATTACGGCATACGGCGGCTTGACCATGCTGTCGGCAATGTTCCTGAGCTTGCTCCGGCGGTACGGTACTTGAAAGGTTTCTCCGGGTTCCATGAATTTGCAGAGTTCACGGCGGAAGATGTTGGAACAAGTGAAAGCGGATTGAATTCTGTTGTTTTGGCCAACAACAGTGAAACTGTTCTGCTCCCCCTCAATGAACCAGTTTATGGCACAAAGCGCAAGAGCCAGATTGAAACATATCTCGAGCACAATGAAGGCGCCGGCGTCCAGCATCTTGCTTTGGTGACTCATGATATCTTCACAACACTTAGGGAGATGAGGAAGAGGAGTTTCCTCGGCGGGTTTGAATTCATGCCCAGTCCCCCGCCGACCTACTATGCAAATCTGCACAACAGGGCTGCAGATGTGCTGACTGTAGACCAGATCAAGCAATGTGAAGAACTTGGAATTTTAGTGGATAGAGACGACCAAGGTACACTACTTCAAATATTCACCAAACCAGTCGGTGACAGACCAACAATTTTCATCGAGATTATACAAAGAATTGGATGCATGGTCGAGGATGAAGAAGGGAAGGTGTACCAGAAGGGAGCATGTGGTGGTTTTGGGAAAGGAAATTTTTCTGAGCTGTTTAAATCCATCGAGGAATATGAGAAAACCTTAGAAGCTAAAAGAACTGCATGA
modifications: GmHPPD-02 Nucleotide Sequence
notes: vector DBN11746
Resistance evaluation [1, 4]: Non-resistant
Scores (pesticide damage) [1, 4]: 100
Classification and statistics of the grade of pesticide damage: Grade 0 (number of plants) [1, 4]: 0
Classification and statistics of the grade of pesticide damage: Grade 1 (number of plants) [1, 4]: 0
Classification and statistics of the grade of pesticide damage: Grade 2 (number of plants) [1, 4]: 0
Classification and statistics of the grade of pesticide damage: Grade 3 (number of plants) [1, 4]: 16
Resistance evaluation [1, 5]: Non-resistant
Scores (pesticide damage) [1, 5]: 100
Classification and statistics of the grade of pesticide damage: Grade 0 (number of plants) [1, 5]: 0
Classification and statistics of the grade of pesticide damage: Grade 1 (number of plants) [1, 5]: 0
Classification and statistics of the grade of pesticide damage: Grade 2 (number of plants) [1, 5]: 0
Classification and statistics of the grade of pesticide damage: Grade 3 (number of plants) [1, 5]: 16
Resistance evaluation ([2]; mesotrione 52.5 g ai/ha): Non-resistant
Scores ([2]; mesotrione 52.5 g ai/ha): 100
Grade 0 (classification and statistics of the grade of pesticide damage; number of plants) ([2]; mesotrione 52.5 g ai/ha): 0
Grade 1 (classification and statistics of the grade of pesticide damage; number of plants) ([2]; mesotrione 52.5 g ai/ha): 0
Grade 2 (classification and statistics of the grade of pesticide damage; number of plants) ([2]; mesotrione 52.5 g ai/ha): 0
Grade 3 (classification and statistics of the grade of pesticide damage; number of plants) ([2]; mesotrione 52.5 g ai/ha): 16
Resistance evaluation ([2]; mesotrione 105 g ai/ha): Non-resistant
Scores ([2]; mesotrione 105 g ai/ha): 100
Grade 0 (classification and statistics of the grade of pesticide damage; number of plants) ([2]; mesotrione 105 g ai/ha): 0
Grade 1 (classification and statistics of the grade of pesticide damage; number of plants) ([2]; mesotrione 105 g ai/ha): 0
Grade 2 (classification and statistics of the grade of pesticide damage; number of plants) ([2]; mesotrione 105 g ai/ha): 0
Grade 3 (classification and statistics of the grade of pesticide damage; number of plants) ([2]; mesotrione 105 g ai/ha): 16
Classification and statistics of the grade of pesticide damage: Grade 0 ([3]; topramezone 25 g ai/ha (1×)): 0
Classification and statistics of the grade of pesticide damage: Grade 1 ([3]; topramezone 25 g ai/ha (1×)): 0
Classification and statistics of the grade of pesticide damage: Grade 2 ([3]; topramezone 25 g ai/ha (1×)): 0
Classification and statistics of the grade of pesticide damage: Grade 3 ([3]; topramezone 25 g ai/ha (1×)): 16
Classification and statistics of the grade of pesticide damage: Grade 0 ([3]; topramezone 100 g ai/ha (4×)): 0
Classification and statistics of the grade of pesticide damage: Grade 1 ([3]; topramezone 100 g ai/ha (4×)): 0
Classification and statistics of the grade of pesticide damage: Grade 2 ([3]; topramezone 100 g ai/ha (4×)): 0
Classification and statistics of the grade of pesticide damage: Grade 3 ([3]; topramezone 100 g ai/ha (4×)): 16
Scores ([3]; topramezone 25 g ai/ha (1×)): 100
Scores ([3]; topramezone 100 g ai/ha (4×)): 100
Resistance evaluation ([3]; topramezone 25 g ai/ha (1×)): non-resistant (non-resistant plants (scores 68-100))
Resistance evaluation ([3]; topramezone 100 g ai/ha (4×)): non-resistant (non-resistant plants (scores 68-100))
